Laboratory results as given in article doi:10.1101/2024.05.23.595439.

Legend:
SSF (full-length) = molecular target: T1, SSF (full-length) (Escherichia coli F plasmid, UniProt P18310 1-179); test: MST
T1 sequence: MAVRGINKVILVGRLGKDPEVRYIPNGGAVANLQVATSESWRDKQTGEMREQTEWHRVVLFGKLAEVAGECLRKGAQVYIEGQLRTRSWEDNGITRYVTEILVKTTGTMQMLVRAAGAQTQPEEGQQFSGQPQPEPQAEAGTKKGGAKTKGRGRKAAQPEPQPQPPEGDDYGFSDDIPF

SSB (full-length) = SSB (full-length) (Escherichia coli, UniProt P0AGE0 1-178); test: MST
Sequence of SSB (full-length) (P0AGE0 whole entry): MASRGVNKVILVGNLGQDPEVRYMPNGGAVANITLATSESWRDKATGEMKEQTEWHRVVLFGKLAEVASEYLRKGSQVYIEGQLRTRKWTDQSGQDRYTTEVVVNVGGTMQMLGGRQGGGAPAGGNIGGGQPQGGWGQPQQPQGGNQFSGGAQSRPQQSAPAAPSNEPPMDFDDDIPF

## GGCAAATTACTCCTGTAATTTGCC (structured_DNA) [hairpin dsDNA]
SSF (full-length)
  Kd: 45.3 µM
SSB (full-length)
  binding result: no binding
